Experimental findings from the nanobody polyreactivity screen of Harvey et al. (2022) are described below.

This data set in a line: yeast display, Sf9 membrane polyspecificity reagent, FACS + sequencing; frameworks hold sequencing errors. An outline of the steps:
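Polyreactivity labels are assigned by the sorting gate from which each nanobody was recovered. The gates were low and high (top ~1%), set on anti-HA fluorescence for expression and streptavidin fluorescence for reagent binding. Before sorting, galactose-induced (36–48 hours) yeast display cells were stained for 1 hour at 4 °C with 10% biotinylated, detergent-solubilized Sf9 membrane reagent.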
On to “QVQLVESGGGLVQAGVSLRLSCASSGYTYHVYAMGWYRQAPGKERELVAAISTGDDTTFYADSVKVRFTISRDNAKNTVYLQMNSLKPEDTAVYYCAAAYGTPYGGYDYWGQGTQVTVSS”, for which the “polyreactivity (PSR sort gate)” value is listed as “low polyreactivity”.

Turning to “QVQLVESGGGLVQAGVSLRLSSAASGIIFAYYTMGWYRQAPGKERELVAAISWSGGSTYYADSVKGRFTISRDNAKNTVYLQMNSLKPEDTAVYYCAVVSRRTRLPYYYWGQGTQVTVSS”, the “polyreactivity (PSR sort gate)” value is recorded as “high polyreactivity”.

For “QVQLVESGGGLVQARGRLRLSCSASGRTFYGYAMGWYRQATGKERELVASISWSTGSTHYADSVKGRFTISRDNAKNTVYLQMNSLKPEDTAVYYCAAPFWRDSYVQIDYDFWGQGTQVTVSS”, the “polyreactivity (PSR sort gate)” value is listed as “low polyreactivity”.

On to “QVQLVESGGGLVQARGSLRLICAASGRTFSYNTMGWYRQAPGKERDLVASITRSGGSTYYSDSVKGRFTISRDNAKNTVYLQMNSLKPEDTAVYYCAADSYPGSTYYDSLDYWGQGTQVTVSS”, for which the “polyreactivity (PSR sort gate)” value was “low polyreactivity”.

Regarding “QVQLVESGGGLVQARGSLRLRFAASGSTFPYYAMGWDRQAPGKERELVATITKRGGRKYYADSVKGRFTISRDNAKNTVYFLMTSLKPEDTAVYYCAARFRFAVTYDYWGQGTQVTVSS”, the “polyreactivity (PSR sort gate)” value is on record as “high polyreactivity”.

For “QVQLVESGGGLVQARGSLRLSCAASGFTFAFYAMGWYRQAPGKEMELVAAITGSGGSTYDADSVKGRFTISRDNAKNTVYLQLNSLKPEDTAVYYCFTRGGYYLYYSYYYWGQGTQVTVSS”, the “polyreactivity (PSR sort gate)” value was “high polyreactivity”.

As for “QVQLVESGGGLVQARGSLRLSCAASGFTFRSYTMGWYRQAHGKERELVAAITSRGTSTYYADSVKGRFTISLDNAKNTVYLQMNSLKPEDTAVYYCAAPIYNGYASWQVYYWGQGTQVTVSS”, the “polyreactivity (PSR sort gate)” value is listed as “high polyreactivity”.

Turning to “QVQLVESGGGLVQARGSLRLSCAASGIIRSNAMGWYRQAPGKERELVAVISSSGGRTYYADSVKGRFTISRDNAKNTVYLQMTSLKPEDTAVFYCPAQVQVGAFSYYYWGQGTQVTVSS”, the “polyreactivity (PSR sort gate)” value is recorded as “high polyreactivity”.

“QVQLVESGGGLVQARGSLRLSCAASGLTVGYNAMGWYRQARVKEWELVGAISSNGGRTYYADSVKGRFTISRDNAKNTVYLQMNSLKPEDTAVYYCNARYTGSSLYYWGQGTQVTVSS”: the “polyreactivity (PSR sort gate)” value is “high polyreactivity”.

“QVQLVESGGGLVQARGSLRLSCAASGNTFVTNAIGWYRQAPGKVRELVAAINSSGGSTYYADSVKGRFTISRDNAKNTVYLQMNSLKPEDTAVYYCAADPLGITSGYGYWGQGTQVNVSS”: the “polyreactivity (PSR sort gate)” value is “low polyreactivity”.

As for “QVQLVESGGGLVQARGSLRLSCAASGRIFLINGMGWYRQAPGKERELVAVITQSGGTYYADSVKGRFTISRDNAKNTVYLQMNSLKPEDTAVYYFAASSYGASRGYWGQGTQVTVSS”, the “polyreactivity (PSR sort gate)” value is “high polyreactivity”.

Take “QVQLVESGGGLVQARGSLRLSCAASGRIFVRKAMGWYRQAPGKERELVASISTSSGSTYYADSVKGRFTISRDNAKNTVYLQMNSLTPEVTAVYYCNAGYHFVHWPHVKHKKFDYWGQGTQVTVSS”: the “polyreactivity (PSR sort gate)” value is “low polyreactivity”.

With “QVQLVESGGGLVQARGSLRLSCAASGRTFDLYAMGWYRQSPGKERELVAAITKGGGSTYYADSVKGRFTISRDNAKNTVYLQMNSLKPEDTAVYYCAARKYKRIYRISSGIGYYWGQGTQVTVSS”, the “polyreactivity (PSR sort gate)” value is on record as “high polyreactivity”.

For “QVQLVESGGGLVQARGSLRLSCAASGRTFFENAMGWYRQAPGKERELVATITTTGGSTYYADSVKGRFTISRDNAKNTVYLQMNSLKPEYTAVYYCATRGWYLGSRGYRNRYGYWGQGTQVTVSS”, the “polyreactivity (PSR sort gate)” value was “high polyreactivity”.

As to “QVQLVESGGGLVQARGSLRLSCAASGRTFGNYAMGWYRQSPGKERELVASINTGGSTSYADSVKGRFTISRDNAKNTVYFLMNSLKPEDTAVYYCARSFFWYRLHVYWGQGTQVTVSS”, the “polyreactivity (PSR sort gate)” value is “low polyreactivity”.

As to “QVQLVESGGGLVQARGSLRLSCAASGRTFRSYAMGWYRQAPGKERELVAVITRSTGNTYYADSVKGRFTISRDNAMNTVYLQMNSLKPEDTAVYYCARQYRRYDYWGQGTQVTVSS”, the “polyreactivity (PSR sort gate)” value is “high polyreactivity”.

With “QVQLVESGGGLVQARGSLRLSCAASGSIFDPNAMGWSRQAPGKVRELGAAMTSGGGSTYYADSVKGRFTISRDNAKNTVYLQMNSLKPEDTAVYYCNNVFVLPYNFVAWFDYWGQGTQVTVSW”, the “polyreactivity (PSR sort gate)” value is “low polyreactivity”.

Turning to “QVQLVESGGGLVQARGSLRLSCAASGSIFGKNVMGWYRQAPGKERELVAAISRSGGRTYYADSVKGRFTISRDNAKNTVYLQMNSLKPEDTAVYYCAADGQPIGQQTYDYWGQGTQVTVSS”, the “polyreactivity (PSR sort gate)” value is on record as “high polyreactivity”.

“QVQLVESGGGLVQARGSLRLSCAASGSIFNRNAMGWYRQAPGKERELVAAISRRGGSTYYADSVKGRFTISRDNEKNSVYLQMNSLKPEDTAVYYCAAATRKTEYDYWGQGTEVTVSS”: the “polyreactivity (PSR sort gate)” value is “low polyreactivity”.

As for “QVQLVESGGGLVQARGSLRLSCAASGSIFSIYAMGWYRPAPGTERELVASITRSSGRTYYADSVKGRFTISRDNAKNTVYLQMISLKPEDTAVYYCAKDYIPLALDADDYWGQGTQVTVSS”, the “polyreactivity (PSR sort gate)” value was “low polyreactivity”.

“QVQLVESGGGLVQARGSLRLSCAASGSISDYYAMGWYRQAPGKERELVAAISWDGGSTYYADSVKGRFTISRDNAKNTVYLQLNSLKPEDTAVYYCNAGSGASVGNNILYDYWGQGTQVTVSS”: the “polyreactivity (PSR sort gate)” value is listed as “low polyreactivity”.

For the sequence “QVQLVESGGGLVQARGSLRLSCAASGSTFRYYAMGLYRQAPGKERELVAAITSSGTSTYYADSVKGRFTISRDNAKNTVYLQMISLKPEDTAVYYCAAPPVYKWVSSRYDYWGQVTQVTVSS”, the “polyreactivity (PSR sort gate)” value is listed as “low polyreactivity”.

On to “QVQLVESGGGLVQARGSLRLSCAASGSTFYYYAMGWYRQAPGKEREFVAAISWTGGTTYYADSVKGRFTISRDIAKNTVYLQMNSLKPEDTAVYYCNADPWWDSDWGYDYWGQGTQVTVSS”, for which the “polyreactivity (PSR sort gate)” value is recorded as “low polyreactivity”.

On to “QVQLVESGGGLVQARGSLRLSCAASGSTLTRNALGWYRQAPGKERELVAAITQRGGSTYYADSVKGRFTISRDNGKNTVYFQMNSLKPEDTAVYYCAKVPSVKYRSIWVLPEYGWGQGTQVTVSS”, for which the “polyreactivity (PSR sort gate)” value is recorded as “high polyreactivity”.

As for “QVQLVESGGGLVQARGSLRLSCAASGSTSTYYAMGWYRQAPGKERELVAAITSSVGSTHYADSVKGRFTISRDNAKNTVYLQMNSLKPEDTAVYYCAATFGYGRYGYWGQGTQVTVSS”, the “polyreactivity (PSR sort gate)” value is “low polyreactivity”.

Consider “QVQLVESGGGLVQARGSLRLSCAASGYIINQYTKGWYRQAPGKERELVADISSGGSTKYADSVKGRFTISRDNGKNTVSLQMNSLKPEDTAVYYCNGEYDSGSPTAYDWEYDYWVQGTQVTVSS”, for which the “polyreactivity (PSR sort gate)” value was “high polyreactivity”.

For “QVQLVESGGGLVQARGSLRLSCAASVGILNWYALGWYRLAPVKEWELVAAISWSGGSTYYADSVKGRFTISRDNAKNTVYLHFNSLKPEVTAVYYCAAHSRGRFSRTYGYWGDGTQVTVSS”, the “polyreactivity (PSR sort gate)” value is “high polyreactivity”.

For the sequence “QVQLVESGGGLVQARGSLRLSCAATGSTFDKYAMGRYRQAPGKERELVAAISSSGTRTYYADSVKGRFTISRDNAKITVYLQMNSLKPEDTAVYYCDTGGSNKYYYWGQGTQVTVSS”, the “polyreactivity (PSR sort gate)” value is given as “high polyreactivity”.

Consider “QVQLVESGGGLVQARGSLRLSSAATGLIILAYAMGWYRQAPGKERELVAAISTSGSTYYADSVKGRFTISRDNAKNTVYLQMNSLKPEDTAVYYCAAYYRWSVTYYDWGQGTQGTVSS”, for which the “polyreactivity (PSR sort gate)” value is given as “high polyreactivity”.

For the sequence “QVQLVESGGGLVQARGSLRLTCAASGRNFYLNAMGWYRQAPGKERELVAAITWSGGRTYYADSVKGRFTISRDNAKNTVYLQMYSLKPEDTAFYYCAAVPRPGPNTVLTPYVYWGQGTQVTVSS”, the “polyreactivity (PSR sort gate)” value is “high polyreactivity”.

On to “QVQLVESGGGLVQARGSLRVSCAASGSTFGRYAMGWYRQAPGKDRELVAAITGSGGSTYYADSVKGRFTISRDNAKNTVYLHMNSLKPEDTAVYYCAAPVDYRRYEYEYWGQGTQVTVSS”, for which the “polyreactivity (PSR sort gate)” value was “low polyreactivity”.

In the case of “QVQLVESGGGLVQAVGSHRLSCAASGFIFTSYAMGCYRQAPGKERELVAAITRSGGRTYYADSVKGRFTISRDNAKNTVYLQMNSLKPEDTAVYYCAAVTFYQSPARGYWGQGTQVTVSS”, the “polyreactivity (PSR sort gate)” value is “high polyreactivity”.

For “QVQLVESGGGLVQAVGSLRLSCAASASIFRNNAMGWYRQAPGKERELVASISSSGDNTNYADSVKGRFTISRDNAKNTVYLQMNSLKPEDTAVYYCAAANKGPDQADYHYDQWGQGTQVTVSS”, the “polyreactivity (PSR sort gate)” value is recorded as “low polyreactivity”.

Consider “QVQLVESGGGLVQAVGSLRLSCAASGGIFTLYVMGWYRQAPGKERELVAAISRTGGSTYYADSVKGRFTISRDNAKNTVYLQMNSLKPEDTAVYYCAALYRGGTRYGGYDYWGQGTQVTVSS”, for which the “polyreactivity (PSR sort gate)” value is recorded as “low polyreactivity”.

For “QVQLVESGGGLVQAVGSLRLSCAASGLIFERYAMGSYIQAPGKEREFVAAISKRGGSTYYADSVKGRFTISRDNAKNTVYLQMNSLKPEDTAVYDCAVQPNYYGMGYCGQGTQVTVSS”, the “polyreactivity (PSR sort gate)” value is given as “high polyreactivity”.

In the case of “QVQLVESGGGLVQAVGSLRLSCAASGRTFDFYAMGWYREAPGKEREFVAAISSRGGSTYYADTVKGRFTISRDNAKNTVYLQMNSLKPEDTAVYYCAKDLGYRGRYNYWGQGTQVTVSS”, the “polyreactivity (PSR sort gate)” value is on record as “low polyreactivity”.

As to “QVQLVESGGGLVQAVGSLRLSCAASGSIFPVYAMGWYRQAPGKERELVADITYTTGSTYYADSVKRRFTISRDNAKNTFYLQMNSLKPEDTAVYYCAKDFGFQSDSWGQGTQVTVSS”, the “polyreactivity (PSR sort gate)” value is “low polyreactivity”.

“QVQLVESGGGLVQAVGSLRLSCAASGSTFAYYAMGWYRQAPGKEREFVAAISTRGGSTYYADSVKGRFTISRDNAKNTVYLQLISLKQEDTAFYYCAAGYFIYSWRIRFDHWGQGTQVTVSS”: the “polyreactivity (PSR sort gate)” value is on record as “high polyreactivity”.

Regarding “QVQLVESGGGLVQAVGSLRLSCADSGRLLSYYDMGWYRQAPGKVRELVARLGGTYYADSVKGRFTISRYIAKNTVYLQMNSLKPEDTAVYYCAAEYGYDFLRSYHEYGYWGQGTQVTVSS”, the “polyreactivity (PSR sort gate)” value is on record as “low polyreactivity”.

Turning to “QVQLVESGGGLVQAVGSLRLSCAPSGSTFPYYAMGWYRQAPGKERELVASIRKRGGGTYYADSVKGRFTISRDNAKNTVYLQMNSLKPEDTAVYYCAVRVYQFRYTGYDYWGQGTQVTVSS”, the “polyreactivity (PSR sort gate)” value is on record as “high polyreactivity”.

Consider “QVQLVESGGGLVQAVGSLSLSCAASGIIFTWYDMGWYRPAPGKERELVAAISYIGGGSTYYADSVKGRFTISRDNAKNTVYLQMNSLKPEDTAVYYCATDFYYAKYGYWGQGTQVTVSS”, for which the “polyreactivity (PSR sort gate)” value is recorded as “low polyreactivity”.
